Data reported in patent US20250361312A1 (INVOX PHARMA, published 2025).

Experiments:
Test in all cases: SPR (Biacore T200), receptor on CM5 chip
human TNFRI = target: T1, human TNFRI (human, UniProt P19438 30-211, limits assumed)
T1 construct: Amine-coupled to a CM5 chip
T1 sequence (looked up): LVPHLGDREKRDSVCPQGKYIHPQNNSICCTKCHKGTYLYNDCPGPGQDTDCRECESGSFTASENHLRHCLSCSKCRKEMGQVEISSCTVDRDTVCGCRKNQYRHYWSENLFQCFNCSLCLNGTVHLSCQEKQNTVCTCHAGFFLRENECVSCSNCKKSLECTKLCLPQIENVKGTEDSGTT

human TNFRII = target: T2, human TNFRII (human, UniProt P20333 23-257, limits assumed)
T2 construct: Amine-coupled to a CM5 chip
T2 sequence (looked up): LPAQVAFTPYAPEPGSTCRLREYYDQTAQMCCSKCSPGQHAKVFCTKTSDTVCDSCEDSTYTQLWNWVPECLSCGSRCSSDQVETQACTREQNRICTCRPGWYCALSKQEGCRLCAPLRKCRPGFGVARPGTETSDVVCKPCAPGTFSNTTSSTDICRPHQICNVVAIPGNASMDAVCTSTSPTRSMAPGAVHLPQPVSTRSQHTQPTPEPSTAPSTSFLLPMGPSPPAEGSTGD

human NGFR = target: T3, human NGFR (human, UniProt P08138 29-250, limits assumed)
T3 construct: Amine-coupled to a CM5 chip
T3 sequence (looked up): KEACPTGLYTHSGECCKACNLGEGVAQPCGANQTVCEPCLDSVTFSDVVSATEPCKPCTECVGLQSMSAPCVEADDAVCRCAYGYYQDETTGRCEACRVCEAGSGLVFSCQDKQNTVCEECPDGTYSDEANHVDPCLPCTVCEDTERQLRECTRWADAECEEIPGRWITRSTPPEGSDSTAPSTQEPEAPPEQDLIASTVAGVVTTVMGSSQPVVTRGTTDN

human CD137 = target: T4, human CD137 (human, UniProt Q07011 24-186, limits assumed)
T4 construct: Amine-coupled to a CM5 chip; also called 4-1BB

human CD40 = target: T5, human CD40 (human, UniProt P25942 21-193, limits assumed)
T5 construct: Amine-coupled to a CM5 chip

Measured: binding result

T5 sequence (P25942 21-193 limits assumed): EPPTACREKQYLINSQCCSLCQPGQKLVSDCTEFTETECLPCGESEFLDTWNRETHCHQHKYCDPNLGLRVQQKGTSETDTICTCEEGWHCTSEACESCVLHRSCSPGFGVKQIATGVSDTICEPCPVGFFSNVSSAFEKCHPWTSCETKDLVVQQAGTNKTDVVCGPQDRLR

B1: FS20-11-131AA/4420 (bispecific antibody, human IgG1, kappa, L234A L235A)
heavy: EVKLDETGGGLVQPGRPMKLSCVASGFTFSDYWMNWVRQSPEKGLEWVAQIRNKPYNYETYYSDSVKGRFTISRDDSKSSVYLQMNNLRVEDMGIYYCTGSYYGMDYWGQGTSVTVSSASTKGPSVFPLAPSSKSTSGGTAALGCLVKDYFPEPVTVSWNSGALTSGVHTFPAVLQSSGLYSLSSVVTVPSSSLGTQTYICNVNHKPSNTKVDKKVEPKSCDKTHTCPPCPAPEAAGGPSVFLFPPKPKDTLMISRTPEVTCVVVDVSHEDPEVKFNWYVDGVEVHNAKTKPREEQYNSTYRVVSVLTVLHQDWLNGKEYKCKVSNKALPAPIEKTISKAKGQPREPQVYTLPPSREEDDNDVSLTCLVKGFYPSDIAVEWESNGIPIGPYKTTPPVLDSDGSFFLYSKLTVDKNRWWKHYVDEHPFLCSVMHEALHNHYTQKSLSLSPG
light: DVVMTQTPLSLPVSLGDQASISCRSSQSLVHSNGNTYLRWYLQKPGQSPKVLIYKVSNRFSGVPDRFSGSGSGTDFTLKISRVEAEDLGVYFCSQSTHVPWTFGGGTKLEIKRTVAAPSVFIFPPSDEQLKSGTASVVCLLNNFYPREAKVQWKVDNALQSGNSQESVTEQDSKDSTYSLSSTLTLSKADYEKHKVYACEVTHQGLSSPVTKSFNRGEC
notes: Human IgG1 with anti-FITC 4420 Fab and LALA; The OX40 site is in the CH3 domain; also called FS20-11-131 Fcab in mock (4420 LALA) mAb^2 format
no binding (tested: 1 µM): all assays above

B2: FS20-22-41AA/4420 (bispecific antibody, human IgG1, kappa, L234A L235A)
heavy: EVKLDETGGGLVQPGRPMKLSCVASGFTFSDYWMNWVRQSPEKGLEWVAQIRNKPYNYETYYSDSVKGRFTISRDDSKSSVYLQMNNLRVEDMGIYYCTGSYYGMDYWGQGTSVTVSSASTKGPSVFPLAPSSKSTSGGTAALGCLVKDYFPEPVTVSWNSGALTSGVHTFPAVLQSSGLYSLSSVVTVPSSSLGTQTYICNVNHKPSNTKVDKKVEPKSCDKTHTCPPCPAPEAAGGPSVFLFPPKPKDTLMISRTPEVTCVVVDVSHEDPEVKFNWYVDGVEVHNAKTKPREEQYNSTYRVVSVLTVLHQDWLNGKEYKCKVSNKALPAPIEKTISKAKGQPREPQVYTLPPSRDEYWDQEVSLTCLVKGFYPSDIAVEWESNGDEQFAYKTTPPVLDSDGSFFLYSKLTVDQYRWNPGDYFSCSVMHEALHNHYTQKSLSLSPG
light: DVVMTQTPLSLPVSLGDQASISCRSSQSLVHSNGNTYLRWYLQKPGQSPKVLIYKVSNRFSGVPDRFSGSGSGTDFTLKISRVEAEDLGVYFCSQSTHVPWTFGGGTKLEIKRTVAAPSVFIFPPSDEQLKSGTASVVCLLNNFYPREAKVQWKVDNALQSGNSQESVTEQDSKDSTYSLSSTLTLSKADYEKHKVYACEVTHQGLSSPVTKSFNRGEC
notes: Human IgG1 with anti-FITC 4420 Fab and LALA; The OX40 site is in the CH3 domain; also called FS20-22-41 Fcab in mock (4420 LALA) mAb^2 format
no binding (tested: 1 µM): all assays above

B3: FS20-22-38AA/4420 (bispecific antibody, human IgG1, kappa, L234A L235A)
heavy: EVKLDETGGGLVQPGRPMKLSCVASGFTFSDYWMNWVRQSPEKGLEWVAQIRNKPYNYETYYSDSVKGRFTISRDDSKSSVYLQMNNLRVEDMGIYYCTGSYYGMDYWGQGTSVTVSSASTKGPSVFPLAPSSKSTSGGTAALGCLVKDYFPEPVTVSWNSGALTSGVHTFPAVLQSSGLYSLSSVVTVPSSSLGTQTYICNVNHKPSNTKVDKKVEPKSCDKTHTCPPCPAPEAAGGPSVFLFPPKPKDTLMISRTPEVTCVVVDVSHEDPEVKFNWYVDGVEVHNAKTKPREEQYNSTYRVVSVLTVLHQDWLNGKEYKCKVSNKALPAPIEKTISKAKGQPREPQVYTLPPSRDEYWDQEVSLTCLVKGFYPSDIAVEWESNGAEKYQYKTTPPVLDSDGSFFLYSKLTVDQYRWNPGDYFSCSVMHEALHNHYTQKSLSLSPG
light: DVVMTQTPLSLPVSLGDQASISCRSSQSLVHSNGNTYLRWYLQKPGQSPKVLIYKVSNRFSGVPDRFSGSGSGTDFTLKISRVEAEDLGVYFCSQSTHVPWTFGGGTKLEIKRTVAAPSVFIFPPSDEQLKSGTASVVCLLNNFYPREAKVQWKVDNALQSGNSQESVTEQDSKDSTYSLSSTLTLSKADYEKHKVYACEVTHQGLSSPVTKSFNRGEC
notes: Human IgG1 with anti-FITC 4420 Fab and LALA; The OX40 site is in the CH3 domain; also called FS20-22-38 Fcab in mock (4420 LALA) mAb^2 format
no binding (tested: 1 µM): all assays above

B4: FS20-22-47AA/4420 (bispecific antibody, human IgG1, kappa, L234A L235A)
heavy: EVKLDETGGGLVQPGRPMKLSCVASGFTFSDYWMNWVRQSPEKGLEWVAQIRNKPYNYETYYSDSVKGRFTISRDDSKSSVYLQMNNLRVEDMGIYYCTGSYYGMDYWGQGTSVTVSSASTKGPSVFPLAPSSKSTSGGTAALGCLVKDYFPEPVTVSWNSGALTSGVHTFPAVLQSSGLYSLSSVVTVPSSSLGTQTYICNVNHKPSNTKVDKKVEPKSCDKTHTCPPCPAPEAAGGPSVFLFPPKPKDTLMISRTPEVTCVVVDVSHEDPEVKFNWYVDGVEVHNAKTKPREEQYNSTYRVVSVLTVLHQDWLNGKEYKCKVSNKALPAPIEKTISKAKGQPREPQVYTLPPSRDEYWDQEVSLTCLVKGFYPSDIAVEWESNGDEQFAYKTTPPVLDSDGSFFLYSKLTVDQYRWSPGDYFSCSVMHEALHNHYTQKSLSLSPG
light: DVVMTQTPLSLPVSLGDQASISCRSSQSLVHSNGNTYLRWYLQKPGQSPKVLIYKVSNRFSGVPDRFSGSGSGTDFTLKISRVEAEDLGVYFCSQSTHVPWTFGGGTKLEIKRTVAAPSVFIFPPSDEQLKSGTASVVCLLNNFYPREAKVQWKVDNALQSGNSQESVTEQDSKDSTYSLSSTLTLSKADYEKHKVYACEVTHQGLSSPVTKSFNRGEC
notes: Human IgG1 with anti-FITC 4420 Fab and LALA; The OX40 site is in the CH3 domain; also called FS20-22-47 Fcab in mock (4420 LALA) mAb^2 format
no binding (tested: 1 µM): all assays above

B5: FS20-22-49AA/4420 (bispecific antibody, human IgG1, kappa, L234A L235A)
heavy: EVKLDETGGGLVQPGRPMKLSCVASGFTFSDYWMNWVRQSPEKGLEWVAQIRNKPYNYETYYSDSVKGRFTISRDDSKSSVYLQMNNLRVEDMGIYYCTGSYYGMDYWGQGTSVTVSSASTKGPSVFPLAPSSKSTSGGTAALGCLVKDYFPEPVTVSWNSGALTSGVHTFPAVLQSSGLYSLSSVVTVPSSSLGTQTYICNVNHKPSNTKVDKKVEPKSCDKTHTCPPCPAPEAAGGPSVFLFPPKPKDTLMISRTPEVTCVVVDVSHEDPEVKFNWYVDGVEVHNAKTKPREEQYNSTYRVVSVLTVLHQDWLNGKEYKCKVSNKALPAPIEKTISKAKGQPREPQVYTLPPSRDEYWDQEVSLTCLVKGFYPSDIAVEWESNGDEQFAYKTTPPVLDSDGSFFLYSKLTVDQYRWNPADYFSCSVMHEALHNHYTQKSLSLSPG
light: DVVMTQTPLSLPVSLGDQASISCRSSQSLVHSNGNTYLRWYLQKPGQSPKVLIYKVSNRFSGVPDRFSGSGSGTDFTLKISRVEAEDLGVYFCSQSTHVPWTFGGGTKLEIKRTVAAPSVFIFPPSDEQLKSGTASVVCLLNNFYPREAKVQWKVDNALQSGNSQESVTEQDSKDSTYSLSSTLTLSKADYEKHKVYACEVTHQGLSSPVTKSFNRGEC
notes: Human IgG1 with anti-FITC 4420 Fab and LALA; The OX40 site is in the CH3 domain; also called FS20-22-49 Fcab in mock (4420 LALA) mAb^2 format; FS20-22-49/4420 (LALA)
no binding (tested: 1 µM): all assays above
